Experimental data as given in patent US20120316071A1 (published 2012).

Experiments:
[1] = molecular target: T1, Recombinant Human DLL4 (R&D Systems Cat#1506-D4/CF) (human, UniProt Q9NR61 27-524); test: ECL multispot (MSD) assay, antigen spotted on plate, Fab in solution; blank spot of this well 224
T1 construct: Bought recombinant protein; also called delta-like protein 4; rHuman DLL4

[2] = molecular target: T2, rHuman IGF-1 sR (insulin-like growth factor-1 soluble receptor), CF (R&D Systems Cat#391-GR) (human, UniProt P08069 31-932); test: as above
T2 construct: Bought recombinant soluble receptor

[3] = molecular target: T3, rHuman P-Cadherin/Fc Chimera, CF (R&D Systems Cat#861-PC) (human, UniProt P22223 108-654); test: as above
T3 construct: Bought recombinant protein

[4] = molecular target: T4, rHuman HGF R/c-MET/Fc Chimera, CF (R&D Systems Cat#358-MT/CF) (human, UniProt P08581 25-932); test: as above
T4 construct: Bought recombinant protein; also called HGF R/Fc; hepatocyte growth factor receptor

[5] = molecular target: T5, rHuman CD44/Fc Chimera, CF (R&D Systems Cat#3660-CD) (human, UniProt P16070 21-220); test: as above
T5 construct: Bought recombinant protein

[6] = molecular target: T6, rHuman Notch-1/Fc Chimera, CF (R&D Systems Cat#3647-TK) (human); test: as above
T6 construct: Bought recombinant protein

[7] = molecular target: T7, rHuman EGF R/Fc Chimera, CF (R&D Systems Cat#344-ER) (human, UniProt P00533 25-645); test: as above
T7 construct: Bought recombinant protein; also called epidermal growth factor receptor

[8] = molecular target: T8, rHuman Erythropoietin R/Fc Chimera, CF (R&D Systems Cat#963-ER) (human, UniProt P19235 25-250); test: as above
T8 construct: Bought recombinant protein; also called EPO R; EPO R/Fc

[9] = molecular target: T9, rHuman ErbB2/Fc Chimera, CF (R&D Systems Cat#1129-ER) (human, UniProt P04626 23-652); test: as above
T9 construct: Bought recombinant protein; also called human epidermal growth factor 2 receptor

[10] = molecular target: T1, Recombinant Human DLL4 (R&D Systems …); test: ECL multispot (MSD) assay, antigen spotted on plate, Fab in solution; blank spot of this well 271
[11] = molecular target: T2, rHuman IGF-1 sR (insulin-like growth …); test: as above
[12] = molecular target: T3, rHuman P-Cadherin/Fc Chimera, CF (R&D …); test: as above
[13] = molecular target: T4, rHuman HGF R/c-MET/Fc Chimera, CF (R&D …); test: as above
[14] = molecular target: T5, rHuman CD44/Fc Chimera, CF (R&D Systems …); test: as above
[15] = molecular target: T6, rHuman Notch-1/Fc Chimera, CF (R&D …); test: as above
[16] = molecular target: T7, rHuman EGF R/Fc Chimera, CF (R&D …); test: as above
[17] = molecular target: T8, rHuman Erythropoietin R/Fc Chimera, CF …; test: as above
[18] = molecular target: T9, rHuman ErbB2/Fc Chimera, CF (R&D …); test: as above
[19] = molecular target: T1, Recombinant Human DLL4 (R&D Systems …); test: ECL multispot (MSD) assay, antigen spotted on plate, Fab in solution; blank spot of this well 204
[20] = molecular target: T2, rHuman IGF-1 sR (insulin-like growth …); test: as above
[21] = molecular target: T3, rHuman P-Cadherin/Fc Chimera, CF (R&D …); test: as above
[22] = molecular target: T4, rHuman HGF R/c-MET/Fc Chimera, CF (R&D …); test: as above
[23] = molecular target: T5, rHuman CD44/Fc Chimera, CF (R&D Systems …); test: as above
[24] = molecular target: T6, rHuman Notch-1/Fc Chimera, CF (R&D …); test: as above
[25] = molecular target: T7, rHuman EGF R/Fc Chimera, CF (R&D …); test: as above
[26] = molecular target: T8, rHuman Erythropoietin R/Fc Chimera, CF …; test: as above
[27] = molecular target: T9, rHuman ErbB2/Fc Chimera, CF (R&D …); test: as above
[28] = molecular target: T10, rHuman Notch-1/Fc Chimera, CF (R&D Systems Cat#3647-TK) (human); test: ECL Multispot (MSD), antigen spotted on plate, Fab in solution; blank spot 206
T10 chain: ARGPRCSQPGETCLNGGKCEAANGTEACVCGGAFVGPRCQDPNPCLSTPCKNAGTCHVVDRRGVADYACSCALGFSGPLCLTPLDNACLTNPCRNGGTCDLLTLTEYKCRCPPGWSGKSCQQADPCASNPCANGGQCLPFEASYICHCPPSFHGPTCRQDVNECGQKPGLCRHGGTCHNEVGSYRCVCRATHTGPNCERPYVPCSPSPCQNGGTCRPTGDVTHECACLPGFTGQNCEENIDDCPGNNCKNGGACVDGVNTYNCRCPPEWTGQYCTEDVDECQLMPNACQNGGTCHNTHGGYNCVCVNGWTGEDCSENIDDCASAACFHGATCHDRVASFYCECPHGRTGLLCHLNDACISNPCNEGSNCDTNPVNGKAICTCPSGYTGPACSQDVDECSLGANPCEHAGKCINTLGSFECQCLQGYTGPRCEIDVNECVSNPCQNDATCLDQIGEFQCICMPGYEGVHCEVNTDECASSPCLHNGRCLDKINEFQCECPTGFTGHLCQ

[29] = molecular target: rHuman CD44/Fc Chimera, CF (R&D Systems Cat#3660-CD) (human, UniProt P16070 21-220); test: as above
[30] = molecular target: rHuman P-Cadherin/Fc Chimera, CF (R&D Systems Cat#861-PC) (human, UniProt P22223 108-654); test: as above
[31] = molecular target: rHuman HGF R/c-MET/Fc Chimera, CF (R&D Systems Cat#358-MT/CF) (human, UniProt P08581 25-932); test: as above
[32] = molecular target: rHuman Erythropoietin R/Fc Chimera, CF (R&D Systems Cat#963-ER) (human, UniProt P19235 25-250); test: as above
[33] = molecular target: rHuman CD44/Fc Chimera, CF (R&D Systems Cat#3660-CD) (human, UniProt P16070 21-220); test: ECL multispot (MSD) assay, antigen spotted on plate, Fab in solution; blank spot of this well 270
[34] = molecular target: T11, rHuman Notch-1/Fc Chimera, CF (R&D Systems Cat#3647-TK) (human); test: as above
T11 chain: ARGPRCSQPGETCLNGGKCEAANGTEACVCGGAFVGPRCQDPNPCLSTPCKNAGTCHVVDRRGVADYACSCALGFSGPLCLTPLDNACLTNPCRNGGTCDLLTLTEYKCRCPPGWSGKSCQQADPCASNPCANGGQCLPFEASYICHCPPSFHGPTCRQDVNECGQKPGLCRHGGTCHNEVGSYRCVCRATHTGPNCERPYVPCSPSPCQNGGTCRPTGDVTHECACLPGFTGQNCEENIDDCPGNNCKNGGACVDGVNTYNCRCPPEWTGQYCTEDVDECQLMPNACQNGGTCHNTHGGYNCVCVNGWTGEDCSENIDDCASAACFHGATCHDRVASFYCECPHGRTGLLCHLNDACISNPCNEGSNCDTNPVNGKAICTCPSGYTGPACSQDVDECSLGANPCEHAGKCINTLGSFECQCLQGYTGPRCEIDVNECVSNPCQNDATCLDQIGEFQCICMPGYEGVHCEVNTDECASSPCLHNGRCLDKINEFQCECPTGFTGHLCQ

[35] = molecular target: rHuman P-Cadherin/Fc Chimera, CF (R&D Systems Cat#861-PC) (human, UniProt P22223 108-654); test: as above
[36] = molecular target: rHuman Erythropoietin R/Fc Chimera, CF (R&D Systems Cat#963-ER) (human, UniProt P19235 25-250); test: as above
[37] = molecular target: rHuman HGF R/c-MET/Fc Chimera, CF (R&D Systems Cat#358-MT/CF) (human, UniProt P08581 25-932); test: as above

B1: Fab VH1-46_IGHD6-6*01_IGHJ1*01 S102A/S103P/S104F (APF) & L6_IGKJ1*01 (Fab, V domains shown)
VH: QVQLVQSGAEVKKPGASVKVSCKASGYTFTSYYMHWVRQAPGQGLEWMGIINPSGGSTSYAQKFQGRVTMTRDTSTSTVYMELSSLRSEDTAVYYCAREEYAPFSAEYFQHWGQGTLVTVSS
VL: not shown
notes: Fab made in E. coli (heavy chain in plasmid A with CH1, His6 and Flag tags; kappa light chain in plasmid C); also called APF / parent; H:APF & L:wt
[1]
  ECL signal: 2830
[2]
  ECL signal: 168
[3]
  ECL signal: 171
[4]
  ECL signal: 275
[5]
  ECL signal: 197
[6]
  ECL signal: 171
[7]
  ECL signal: 279
[8]
  ECL signal: 0
[9]
  ECL signal: 149
[10]
  ECL signal: 3480
[11]
  ECL signal: 241
[12]
  ECL signal: 297
[13]
  ECL signal: 306
[14]
  ECL signal: 189
[15]
  ECL signal: 257
[16]
  ECL signal: 272
[17]
  ECL signal: 304
[18]
  ECL signal: 330
[19]
  ECL signal: 2120
[20]
  ECL signal: 197
[21]
  ECL signal: 208
[22]
  ECL signal: 272
[23]
  ECL signal: 96
[24]
  ECL signal: 334
[25]
  ECL signal: 237
[26]
  ECL signal: 329
[27]
  ECL signal: 157

B2: Fab VH1-46_IGHD6-6*01_IGHJ1*01 S102A/S103P/S104F/H111F (APFF) & L6_IGKJ1*01 N93S (Fab, V domains shown)
VH: QVQLVQSGAEVKKPGASVKVSCKASGYTFTSYYMHWVRQAPGQGLEWMGIINPSGGSTSYAQKFQGRVTMTRDTSTSTVYMELSSLRSEDTAVYYCAREEYAPFSAEYFQFWGQGTLVTVSS
VL: EIVLTQSPATLSLSPGERATLSCRASQSVSSYLAWYQQKPGQAPRLLIYDASNRATGIPARFSGSGSGTDFTLTISSLEPEDFAVYYCQQRSSWPPWTFGQGTKVEIKR
notes: also called APFF / N93S
[28]
  ECL signal: 345
[29]
  ECL signal: 346
[30]
  ECL signal: 321
[31]
  ECL signal: 328
[32]
  ECL signal: 420

B3: Fab VH1-46_IGHD6-6*01_IGHJ1*01 S102A/S103P/S104F/H111F (APFF) & L6_IGKJ1*01 N93Y (Fab, V domains shown)
VH: QVQLVQSGAEVKKPGASVKVSCKASGYTFTSYYMHWVRQAPGQGLEWMGIINPSGGSTSYAQKFQGRVTMTRDTSTSTVYMELSSLRSEDTAVYYCAREEYAPFSAEYFQFWGQGTLVTVSS
VL: EIVLTQSPATLSLSPGERATLSCRASQSVSSYLAWYQQKPGQAPRLLIYDASNRATGIPARFSGSGSGTDFTLTISSLEPEDFAVYYCQQRSYWPPWTFGQGTKVEIKR
notes: Fab made in E. coli (heavy chain in plasmid A with CH1, His6 and Flag tags; kappa light chain in plasmid C); also called APFF / N93Y
[33]
  ECL signal: 333
[34]
  ECL signal: 453
[35]
  ECL signal: 499
[36]
  ECL signal: 541
[37]
  ECL signal: 380
